Measurements reported in patent publication US20140213513A1 (Sanofi, priority 2012, published 2014).
*1 amine or outer side, *2 acyl side, *3 side chain or, on linkers, in order; H or OH if unused. Where no end group is shown, it is not given here. Side-chain parts run from the residue outwards. [ ]: non-standard residue; d: D form. The star is where a group is joined. γGlu = O=C(O)[C@H](CCC(=O)[*:2])N[*:1]; Stearoyl = CCCCCCCCCCCCCCCCCC(=O)*; Palmitoyl = CCCCCCCCCCCCCCCC(=O)*; Aib = CC(C)(N)C(=O)O

T1: human GIP receptor (human, UniProt P48546 22-466)
T1 sequence (looked up): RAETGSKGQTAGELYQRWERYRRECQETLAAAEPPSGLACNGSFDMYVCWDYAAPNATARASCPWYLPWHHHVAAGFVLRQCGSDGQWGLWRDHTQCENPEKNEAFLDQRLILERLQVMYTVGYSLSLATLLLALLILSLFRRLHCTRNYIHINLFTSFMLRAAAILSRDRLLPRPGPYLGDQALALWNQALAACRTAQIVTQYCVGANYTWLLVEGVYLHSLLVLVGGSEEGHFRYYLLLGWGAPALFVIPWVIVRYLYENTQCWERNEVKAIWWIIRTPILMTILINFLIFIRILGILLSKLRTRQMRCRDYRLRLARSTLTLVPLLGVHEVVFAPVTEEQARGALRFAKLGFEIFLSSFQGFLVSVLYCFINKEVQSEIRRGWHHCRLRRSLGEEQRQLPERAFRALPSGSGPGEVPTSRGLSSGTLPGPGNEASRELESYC

B1: exendin-4 peptide analogue SEQ ID NO: 39 (peptide)
peptide: Y[Aib]QGTFTSDLSKQK([γGlu-Palmitoyl])ESKAAQDFIEWLKAGGPSSGAPPPS-NH2
modifications: N-terminus assumed
SMILES: CCCCCCCCCCCCCCCC(=O)N[C@@H](CCC(=O)NCCCC[C@H](NC(=O)[C@H](CCC(N)=O)NC(=O)[C@H](CCCCN)NC(=O)[C@H](CO)NC(=O)[C@H](CC(C)C)NC(=O)[C@H](CC(=O)O)NC(=O)[C@H](CO)NC(=O)[C@@H](NC(=O)[C@H](Cc1ccccc1)NC(=O)[C@@H](NC(=O)CNC(=O)[C@H](CCC(N)=O)NC(=O)C(C)(C)NC(=O)[C@@H](N)Cc1ccc(O)cc1)[C@@H](C)O)[C@@H](C)O)C(=O)N[C@@H](CCC(=O)O)C(=O)N[C@@H](CO)C(=O)N[C@@H](CCCCN)C(=O)N[C@@H](C)C(=O)N[C@@H](C)C(=O)N[C@@H](CCC(N)=O)C(=O)N[C@@H](CC(=O)O)C(=O)N[C@@H](Cc1ccccc1)C(=O)N[C@H](C(=O)N[C@@H](CCC(=O)O)C(=O)N[C@@H](Cc1c[nH]c2ccccc12)C(=O)N[C@@H](CC(C)C)C(=O)N[C@@H](CCCCN)C(=O)N[C@@H](C)C(=O)NCC(=O)NCC(=O)N1CCC[C@H]1C(=O)N[C@@H](CO)C(=O)N[C@@H](CO)C(=O)NCC(=O)N[C@@H](C)C(=O)N1CCC[C@H]1C(=O)N1CCC[C@H]1C(=O)N1CCC[C@H]1C(=O)N[C@@H](CO)C(N)=O)[C@@H](C)CC)C(=O)O
B2: exendin-4 peptide analogue SEQ ID NO: 8 (peptide)
peptide: Y[Aib]QGTFTSDLSIQK([γGlu-Palmitoyl])EKLAA[Aib]EFIEWLKNTGPSSGAPPPS-NH2
modifications: N-terminus assumed
SMILES: CCCCCCCCCCCCCCCC(=O)N[C@@H](CCC(=O)NCCCC[C@H](NC(=O)[C@H](CCC(N)=O)NC(=O)[C@@H](NC(=O)[C@H](CO)NC(=O)[C@H](CC(C)C)NC(=O)[C@H](CC(=O)O)NC(=O)[C@H](CO)NC(=O)[C@@H](NC(=O)[C@H](Cc1ccccc1)NC(=O)[C@@H](NC(=O)CNC(=O)[C@H](CCC(N)=O)NC(=O)C(C)(C)NC(=O)[C@@H](N)Cc1ccc(O)cc1)[C@@H](C)O)[C@@H](C)O)[C@@H](C)CC)C(=O)N[C@@H](CCC(=O)O)C(=O)N[C@@H](CCCCN)C(=O)N[C@@H](CC(C)C)C(=O)N[C@@H](C)C(=O)N[C@@H](C)C(=O)NC(C)(C)C(=O)N[C@@H](CCC(=O)O)C(=O)N[C@@H](Cc1ccccc1)C(=O)N[C@H](C(=O)N[C@@H](CCC(=O)O)C(=O)N[C@@H](Cc1c[nH]c2ccccc12)C(=O)N[C@@H](CC(C)C)C(=O)N[C@@H](CCCCN)C(=O)N[C@@H](CC(N)=O)C(=O)N[C@H](C(=O)NCC(=O)N1CCC[C@H]1C(=O)N[C@@H](CO)C(=O)N[C@@H](CO)C(=O)NCC(=O)N[C@@H](C)C(=O)N1CCC[C@H]1C(=O)N1CCC[C@H]1C(=O)N1CCC[C@H]1C(=O)N[C@@H](CO)C(N)=O)[C@@H](C)O)[C@@H](C)CC)C(=O)O
B3: exendin-4 peptide analogue SEQ ID NO: 33 (peptide)
peptide: Y[Aib]QGTFTSDLSIQK([γGlu-Palmitoyl])EKRAALEFIEWLKNTGPSSGAPPPS-NH2
modifications: N-terminus assumed
SMILES: CCCCCCCCCCCCCCCC(=O)N[C@@H](CCC(=O)NCCCC[C@H](NC(=O)[C@H](CCC(N)=O)NC(=O)[C@@H](NC(=O)[C@H](CO)NC(=O)[C@H](CC(C)C)NC(=O)[C@H](CC(=O)O)NC(=O)[C@H](CO)NC(=O)[C@@H](NC(=O)[C@H](Cc1ccccc1)NC(=O)[C@@H](NC(=O)CNC(=O)[C@H](CCC(N)=O)NC(=O)C(C)(C)NC(=O)[C@@H](N)Cc1ccc(O)cc1)[C@@H](C)O)[C@@H](C)O)[C@@H](C)CC)C(=O)N[C@@H](CCC(=O)O)C(=O)N[C@@H](CCCCN)C(=O)N[C@@H](CCCNC(=N)N)C(=O)N[C@@H](C)C(=O)N[C@@H](C)C(=O)N[C@@H](CC(C)C)C(=O)N[C@@H](CCC(=O)O)C(=O)N[C@@H](Cc1ccccc1)C(=O)N[C@H](C(=O)N[C@@H](CCC(=O)O)C(=O)N[C@@H](Cc1c[nH]c2ccccc12)C(=O)N[C@@H](CC(C)C)C(=O)N[C@@H](CCCCN)C(=O)N[C@@H](CC(N)=O)C(=O)N[C@H](C(=O)NCC(=O)N1CCC[C@H]1C(=O)N[C@@H](CO)C(=O)N[C@@H](CO)C(=O)NCC(=O)N[C@@H](C)C(=O)N1CCC[C@H]1C(=O)N1CCC[C@H]1C(=O)N1CCC[C@H]1C(=O)N[C@@H](CO)C(N)=O)[C@@H](C)O)[C@@H](C)CC)C(=O)O
B4: exendin-4 peptide analogue SEQ ID NO: 40 (peptide)
peptide: Y[Aib]QGTFTSDLSKQK([γGlu-Palmitoyl])ESKAAQEFIEWLKAGGPSSGAPPPS-NH2
modifications: N-terminus assumed
SMILES: CCCCCCCCCCCCCCCC(=O)N[C@@H](CCC(=O)NCCCC[C@H](NC(=O)[C@H](CCC(N)=O)NC(=O)[C@H](CCCCN)NC(=O)[C@H](CO)NC(=O)[C@H](CC(C)C)NC(=O)[C@H](CC(=O)O)NC(=O)[C@H](CO)NC(=O)[C@@H](NC(=O)[C@H](Cc1ccccc1)NC(=O)[C@@H](NC(=O)CNC(=O)[C@H](CCC(N)=O)NC(=O)C(C)(C)NC(=O)[C@@H](N)Cc1ccc(O)cc1)[C@@H](C)O)[C@@H](C)O)C(=O)N[C@@H](CCC(=O)O)C(=O)N[C@@H](CO)C(=O)N[C@@H](CCCCN)C(=O)N[C@@H](C)C(=O)N[C@@H](C)C(=O)N[C@@H](CCC(N)=O)C(=O)N[C@@H](CCC(=O)O)C(=O)N[C@@H](Cc1ccccc1)C(=O)N[C@H](C(=O)N[C@@H](CCC(=O)O)C(=O)N[C@@H](Cc1c[nH]c2ccccc12)C(=O)N[C@@H](CC(C)C)C(=O)N[C@@H](CCCCN)C(=O)N[C@@H](C)C(=O)NCC(=O)NCC(=O)N1CCC[C@H]1C(=O)N[C@@H](CO)C(=O)N[C@@H](CO)C(=O)NCC(=O)N[C@@H](C)C(=O)N1CCC[C@H]1C(=O)N1CCC[C@H]1C(=O)N1CCC[C@H]1C(=O)N[C@@H](CO)C(N)=O)[C@@H](C)CC)C(=O)O
B5: exendin-4 peptide analogue SEQ ID NO: 41 (peptide)
peptide: Y[Aib]QGTFTSDLSKQK([γGlu-Stearoyl])DSKAAQDFIEWLKAGGPSSGAPPPS-NH2
modifications: N-terminus assumed
SMILES: CCCCCCCCCCCCCCCCCC(=O)N[C@@H](CCC(=O)NCCCC[C@H](NC(=O)[C@H](CCC(N)=O)NC(=O)[C@H](CCCCN)NC(=O)[C@H](CO)NC(=O)[C@H](CC(C)C)NC(=O)[C@H](CC(=O)O)NC(=O)[C@H](CO)NC(=O)[C@@H](NC(=O)[C@H](Cc1ccccc1)NC(=O)[C@@H](NC(=O)CNC(=O)[C@H](CCC(N)=O)NC(=O)C(C)(C)NC(=O)[C@@H](N)Cc1ccc(O)cc1)[C@@H](C)O)[C@@H](C)O)C(=O)N[C@@H](CC(=O)O)C(=O)N[C@@H](CO)C(=O)N[C@@H](CCCCN)C(=O)N[C@@H](C)C(=O)N[C@@H](C)C(=O)N[C@@H](CCC(N)=O)C(=O)N[C@@H](CC(=O)O)C(=O)N[C@@H](Cc1ccccc1)C(=O)N[C@H](C(=O)N[C@@H](CCC(=O)O)C(=O)N[C@@H](Cc1c[nH]c2ccccc12)C(=O)N[C@@H](CC(C)C)C(=O)N[C@@H](CCCCN)C(=O)N[C@@H](C)C(=O)NCC(=O)NCC(=O)N1CCC[C@H]1C(=O)N[C@@H](CO)C(=O)N[C@@H](CO)C(=O)NCC(=O)N[C@@H](C)C(=O)N1CCC[C@H]1C(=O)N1CCC[C@H]1C(=O)N1CCC[C@H]1C(=O)N[C@@H](CO)C(N)=O)[C@@H](C)CC)C(=O)O
B6: exendin-4 peptide analogue SEQ ID NO: 65 (peptide)
peptide: YAEGTFTSDLSKQKEEEAVRLFIEWLKAGGPSSGAPPPS
modifications: Aib at 2; Lys14 side-chain NH2 acylated with (S)-4-Carboxy-4-octadecanoylamino-butyryl- (yE-x70); C-terminal amide
B7: exendin-4 peptide analogue SEQ ID NO: 38 (peptide)
peptide: Y[Aib]EGTFTSDLSIQK([γGlu-Palmitoyl])EEQAAHEFIEWLKR[Aib]GPSSGAPPPS-NH2
modifications: N-terminus assumed
SMILES: CCCCCCCCCCCCCCCC(=O)N[C@@H](CCC(=O)NCCCC[C@H](NC(=O)[C@H](CCC(N)=O)NC(=O)[C@@H](NC(=O)[C@H](CO)NC(=O)[C@H](CC(C)C)NC(=O)[C@H](CC(=O)O)NC(=O)[C@H](CO)NC(=O)[C@@H](NC(=O)[C@H](Cc1ccccc1)NC(=O)[C@@H](NC(=O)CNC(=O)[C@H](CCC(=O)O)NC(=O)C(C)(C)NC(=O)[C@@H](N)Cc1ccc(O)cc1)[C@@H](C)O)[C@@H](C)O)[C@@H](C)CC)C(=O)N[C@@H](CCC(=O)O)C(=O)N[C@@H](CCC(=O)O)C(=O)N[C@@H](CCC(N)=O)C(=O)N[C@@H](C)C(=O)N[C@@H](C)C(=O)N[C@@H](Cc1c[nH]cn1)C(=O)N[C@@H](CCC(=O)O)C(=O)N[C@@H](Cc1ccccc1)C(=O)N[C@H](C(=O)N[C@@H](CCC(=O)O)C(=O)N[C@@H](Cc1c[nH]c2ccccc12)C(=O)N[C@@H](CC(C)C)C(=O)N[C@@H](CCCCN)C(=O)N[C@@H](CCCNC(=N)N)C(=O)NC(C)(C)C(=O)NCC(=O)N1CCC[C@H]1C(=O)N[C@@H](CO)C(=O)N[C@@H](CO)C(=O)NCC(=O)N[C@@H](C)C(=O)N1CCC[C@H]1C(=O)N1CCC[C@H]1C(=O)N1CCC[C@H]1C(=O)N[C@@H](CO)C(N)=O)[C@@H](C)CC)C(=O)O

Columns and labels:
Assay in all cases: cell-based or functional assay
human GIP receptor = molecular target: T1, human GIP receptor
human GLP-1 receptor = human GLP-1 receptor (human, UniProt P43220 24-463)
human glucagon receptor = human glucagon receptor (human, UniProt P47871 26-477)
human glucagon receptor, sequence (P47871 26-477): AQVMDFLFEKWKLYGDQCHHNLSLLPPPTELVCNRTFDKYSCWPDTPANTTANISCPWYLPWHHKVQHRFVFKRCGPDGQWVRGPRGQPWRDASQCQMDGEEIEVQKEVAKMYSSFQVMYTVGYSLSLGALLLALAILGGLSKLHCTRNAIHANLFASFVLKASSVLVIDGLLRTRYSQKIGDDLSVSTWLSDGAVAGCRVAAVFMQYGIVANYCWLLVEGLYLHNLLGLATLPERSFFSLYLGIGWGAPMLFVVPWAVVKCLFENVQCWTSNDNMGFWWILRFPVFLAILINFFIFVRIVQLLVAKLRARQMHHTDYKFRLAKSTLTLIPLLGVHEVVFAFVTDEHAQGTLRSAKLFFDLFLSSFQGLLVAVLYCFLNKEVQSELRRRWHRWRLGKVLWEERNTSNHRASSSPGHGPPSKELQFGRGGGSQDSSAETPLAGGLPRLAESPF

Row | Molecule | EC50 hGIP R (human GIP receptor) | EC50 hGLP-1 R (human GLP-1 receptor) | EC50 hGLUC R (human glucagon receptor)
1 | Tyr(1)Ile(12)-GLP1 (peptide) | 3.66 nM | 0.005 nM | –
2 | B1 | 0.0385 nM | 0.0045 nM | 0.0192 nM
3 | B2 | 0.026 nM | 0.0087 nM | 0.803 nM
4 | B3 | 0.0882 nM | – | 0.109 nM
5 | B4 | 0.0536 nM | 0.0055 nM | 0.0226 nM
6 | B5 | 0.186 nM | 0.0241 nM | 0.0265 nM
7 | B6 | 0.012 nM | – | 26.8 nM
8 | B7 | 0.0074 nM | 0.009 nM | 22.5 nM
